Results as given in patent US7183387 (Genentech, dated 2007).
Positions count from the first letter of the chain named. Names may count otherwise. Values belong to the binder of their own block, whether it stands above or below them.

Columns and labels:
[1] = target: T1, human neonatal Fc receptor (FcRn), biotinylated (human, UniProt P55899 24-297; P61769 21-119, biotinylated (biotin-X-NHS)); assay: FcRn ELISA
T1 construct: captured on streptavidin plates
Experimental: FcRn Binding ELISA: For measuring FcRn binding activity of IgG variants, ELISA plates were coated with 2 µg/ml streptavidin (Zymed, South San Francisco) in 50 mM carbonate buffer, pH 9.6, at 4° C. overnight and blocked with PBS-0.5% BSA, pH 7.2 at room temperature for one hour. Biotinylated FcRn (prepared using biotin-X-NHS from Research Organics, Cleveland, Ohio and used at 1–2 µg/ml) in PBS-0.5% BSA, 0.05% polysorbate 20, pH 7.2, was added to the plate and incubated for one hour. Two fold serial dilutions of IgG standard (1.6–100 ng/ml) or variants in PBS-0.5% BSA, 0.05% polysorbate 20, pH 6.0, were added to the plate and incubated for two hours. Bound IgG was detected using peroxidase labeled goat F(ab')_2 anti-human IgG F(ab')_2 in the above pH 6.0 buffer (Jackson ImmunoResearch, West Grove, Pa.) followed by 3,3',5,5'-tetramethyl benzidine (Kirgaard & Perry Laboratories) as the substrate. […] Absorbance was read at 450 nm on a Vmax plate reader (Molecular Devices, Menlo Park, Calif.). Titration curves were fit with a four-parameter nonlinear regression curve-fitting program (KaleidaGraph, Synergy software, Reading, Pa.). Concentrations of IgG variants corresponding to the mid-point absorbance of the titration curve of the standard were calculated and then divided by the concentration of the standard corresponding to the mid-point absorbance of the standard titration curve.

[2] = target: T2, human FcγRIIIA-Val158 α subunit extracellular domain-His6-GST fusion protein (human, UniProt P08637 17-208); assay: ELISA format, hexameric complex on FcγRIIIA-Val158
T2 construct: ELISA-format target; also called FcγRIIIA-V158; not shown: glutathione S-transferase (GST)
T2 sequence (P08637 other isoform, or with tags, fused parts or gaps, form in doubt): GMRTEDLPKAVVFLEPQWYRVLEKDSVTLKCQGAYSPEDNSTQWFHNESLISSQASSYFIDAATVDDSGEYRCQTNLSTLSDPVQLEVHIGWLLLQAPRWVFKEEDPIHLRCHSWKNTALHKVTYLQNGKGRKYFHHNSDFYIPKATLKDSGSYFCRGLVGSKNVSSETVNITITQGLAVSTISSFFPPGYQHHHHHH

[3] = target: T3, human FcγRIIIA-Phe158 with human γ-chain on stably transfected CHO cells (human, UniProt P08637 17-254; P30273 19-86); assay: flow cytometry, monomeric IgG on CHO cells with FcγRIIIA-Phe158 α- and γ-chains
T3 construct: whole, on cells; CHO cells stably transfected with the α- and γ-chains of the receptor; also called FcγRIIIA-Phe158 (cell-based assay)
T3 sequence (P08637 17-254, chain 1 of 2): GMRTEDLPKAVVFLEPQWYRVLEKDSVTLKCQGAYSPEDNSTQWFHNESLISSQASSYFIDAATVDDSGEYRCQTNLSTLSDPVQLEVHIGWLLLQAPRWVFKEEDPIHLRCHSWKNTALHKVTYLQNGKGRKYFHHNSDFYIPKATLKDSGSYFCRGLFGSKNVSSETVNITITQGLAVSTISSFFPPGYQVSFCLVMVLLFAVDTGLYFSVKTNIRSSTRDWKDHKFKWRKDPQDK
T3 sequence (P30273 19-86, chain 2 of 2): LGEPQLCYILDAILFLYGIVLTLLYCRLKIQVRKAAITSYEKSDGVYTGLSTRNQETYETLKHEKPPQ
Experimental: CHO cell transfection was carried out using Superfect (Qiagen) according to the manufacturer's instructions. […] Receptor expression levels were determined by staining with anti-FcγRIII monoclonal antibody 3G8 (Medarex). Binding of IgG1 variants was performed by adding monomeric IgG in staining buffer to 5×10^5 cells and incubating in 96 well round-bottom tissue culture plates (Costar, Cambridge, Mass.) at 4° C. for 30 min. Cells were washed three times with staining buffer and IgG binding detected by addition of 1:200 PE-F(ab')_2 fragment of goat anti-human IgG and incubation for 30 min at 4° C. After washing, immunofluorescence staining was analyzed on a FACScan flow cytometer using Cellquest software (Becton Dickinson). Dead cells were excluded from analysis by addition of 1 μg/ml propidium iodide.
For FcγRIIIA, the selected variants were assayed in the ELISA-format as well as on stable-transfected CHO cell lines expressing the γ-chains (FcγRIIIA-Phe158 or FcγRIIIA-Val158) with the associated human α-chain.

[4] = target: T4, human FcγRIIIA-Val158 with human γ-chain on stably transfected CHO cells (human, UniProt P08637 17-254; P30273 19-86); assay: flow cytometry, monomeric IgG on CHO cells with FcγRIIIA-Val158 α- and γ-chains
T4 construct: whole, on cells; CHO cells stably transfected with the α- and γ-chains of the receptor; also called FcγRIIIA-Val158 (cell-based assay); FcγRIIIA-V158
T4 sequence (P08637 17-254 F176V, chain 1 of 2): as the sequence (P08637 17-254, chain 1 of 2) above, with F160V counted along it
T4 sequence (P30273 19-86, chain 2 of 2): as the sequence (P30273 19-86, chain 2 of 2) above

[5] = target: T5, human FcγRIIIA-Phe158 α subunit extracellular domain-His6-GST fusion protein (human, UniProt P08637 17-208); assay: ELISA format, hexameric complex on FcγRIIIA-Phe158; separate assays run together with the Val158 assays
T5 construct: ELISA-format target; also called FcγRIIIA-F158; not shown: glutathione S-transferase (GST)
T5 sequence (P08637 other isoform, or with tags, fused parts or gaps, form in doubt): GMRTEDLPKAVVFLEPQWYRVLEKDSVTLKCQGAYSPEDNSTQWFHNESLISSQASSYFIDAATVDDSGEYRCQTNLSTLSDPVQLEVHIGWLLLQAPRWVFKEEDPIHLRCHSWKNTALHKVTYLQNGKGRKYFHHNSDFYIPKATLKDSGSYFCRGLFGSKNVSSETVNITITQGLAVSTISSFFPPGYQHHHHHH

[6] = target: T5, human FcγRIIIA-Phe158 α subunit …; assay: ELISA, IgG:IgE hexamer on coated FcγRIIIA-Phe158-GST; value carried over from an earlier table (printed in Table 8)
[7] = target: T6, human FcγRIIA-H131 α subunit extracellular domain-His6-GST fusion protein (human, UniProt P12318 34-217); assay: ELISA, IgG:IgE hexamer on coated FcγRIIA-H131-GST
T6 construct: also called FcγRIIA-His131; not shown: glutathione S-transferase (GST)
T6 sequence: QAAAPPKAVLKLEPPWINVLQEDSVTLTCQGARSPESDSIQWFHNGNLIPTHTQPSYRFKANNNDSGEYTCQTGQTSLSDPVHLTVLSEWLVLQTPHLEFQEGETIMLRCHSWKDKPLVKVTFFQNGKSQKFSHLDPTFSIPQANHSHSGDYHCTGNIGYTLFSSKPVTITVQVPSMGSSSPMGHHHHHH

[8] = target: T6, human FcγRIIA-H131 α subunit …; assay: ELISA; binding ratio on FcγRIIA-H131 divided by that on FcγRIIA-R131
[9] = target: T7, human FcγRIIA-R131 α subunit extracellular domain-His6-GST fusion protein (human, UniProt P12318 34-217); assay: ELISA, IgG:IgE hexamer on coated FcγRIIA-R131-GST; separate assays run together with the H131 assays
T7 construct: ECD-6His-GST fusion made in 293 cells, coated on the plate; also called FcγRIIA-Arg131; not shown: glutathione S-transferase (GST)
T7 sequence: T6 sequence with H134R

[10] = target: T7, human FcγRIIA-R131 α subunit …; assay: ELISA, IgG:IgE hexamer on coated FcγRIIA-R131-GST; value said to be carried over from Table 6, 7 or 8
[11] = target: T8, human FcγRIIA-R131 α subunit extracellular domain-6His-GST fusion (human, UniProt P12318 34-217); assay: ELISA, IgG:IgE hexamers on receptor-GST
T8 construct: also called FcγRIIA-Arg131; not shown: glutathione S-transferase (GST)
T8 sequence: T6 sequence with H134R

[12] = target: T9, human FcγRIIA-H131 α subunit extracellular domain-6His-GST fusion (human, UniProt P12318 34-217); assay: ELISA, IgG:IgE hexamers on receptor-GST
T9 construct: also called FcγRIIA-His131; not shown: glutathione S-transferase (GST)
T9 sequence: T6 sequence

[13] = target: T10, human FcγRIIB α subunit extracellular domain-6His-GST fusion (human, UniProt P31994 43-217); assay: ELISA, IgG:IgE hexamers on receptor-GST
T10 construct: not shown: glutathione S-transferase (GST)
T10 sequence: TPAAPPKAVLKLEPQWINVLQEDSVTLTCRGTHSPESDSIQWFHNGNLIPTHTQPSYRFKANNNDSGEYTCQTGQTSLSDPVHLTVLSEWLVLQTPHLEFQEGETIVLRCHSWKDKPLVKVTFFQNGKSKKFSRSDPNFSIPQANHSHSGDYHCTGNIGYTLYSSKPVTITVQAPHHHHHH

[14] = target: T11, human FcγRIIIA-F158 α subunit extracellular domain-6His-GST fusion (human, UniProt P08637 17-208); assay: ELISA, IgG:IgE hexamers on receptor-GST
T11 construct: also called FcγRIIIA-Phe158; not shown: glutathione S-transferase (GST)

B3: anti-IgE E27 IgG1 variant Lys320Ala (antibody)
heavy: not shown
light: DIQLTQSPSSLSASVGDRVTITCRASKPVDGEGDSYLNWYQQKPGKAPKLLIYAASYLESGVPSRFSGSGSGTDFTLTISSLQPEDFATYYCQQSHEDPYTFGQGTKVEIKRTVAAPSVFIFPPSDEQLKSGTASVVCLLNNFYPREAKVQWKVDNALQSGNSQESVTEQDSKDSTYSLSSTLTLSKADYEKHKVYACEVTHQGLSSPVTKSFNRGEC
notes: also called K320(339)A; IG2 48
ratio of binding of the variant to that of native IgG1 [7]: 1.13 ratio (variant/native IgG1)
H131/R131 [8]: 1.1 ratio (H131 value/R131 value)
ratio of binding of the variant to that of native IgG1 [9]: 1.05 ratio (variant/native IgG1)
ratio of binding of the variant to that of native IgG1 [10]: 1.14 ratio (variant/native IgG1)

B4: E27 IgG1 variant S267(280)G (antibody)
heavy: not shown
light: B3 light
notes: also called IG2 189
ratio to native IgG1 [11]: 1.18
ratio to native IgG1 [12]: 0.59
ratio to native IgG1 [13]: 0.95
ratio to native IgG1 [14]: 0.08

Second part, the binder after the results:

binding result [1]: binds
B1: anti-IgE E27 IgG1 T307Q (antibody)
heavy: not shown
light: B3 light

ratio of binding of the variant to that of native IgG1 [2]: 1.11 ratio (variant/native IgG1)
ratio of binding of the variant to that of native IgG1 [3]: 3.42 ratio (variant/native IgG1)
ratio of binding of the variant to that of native IgG1 [4]: 1.65 ratio (variant/native IgG1)
ratio of binding of the variant to that of native IgG1 [5]: 2.17 ratio (variant/native IgG1)
ratio of binding of the variant to that of native IgG1 [6]: 1.51 ratio (variant/native IgG1)
B2: anti-IgE E27 IgG1 variant Ser298Ala/Glu333Ala/Lys334Ala (antibody)
heavy: EVQLVESGGGLVQPGGSLRLSCAVSGYSITSGYSWNWIRQAPGKGLEWVASIKYSGETKYNPSVKGRITISRDDSKNTFYLQMNSLRAEDTAVYYCARGSHYFGHWHFAVWGQGTLVTVSSASTKGPSVFPLAPSSKSTSGGTAALGCLVKDYFPEPVTVSWNSGALTSGVHTFPAVLQSSGLYSLSSVVTVPSSSLGTQTYICNVNHKPSNTKVDKKVEPKSCDKTHTCPPCPAPELLGGPSVFLFPPKPKDTLMISRTPEVTCVVVDVSHEDPEVKFNWYVDGVEVHNAKTKPREEQYNATYRVVSVLTVLHQDWLNGKEYKCKVSNKALPAPIAATISKAKGQPREPQVYTLPPSREEMTKNQVSLTCLVKGFYPSDIAVEWESNGQPENNYKTTPPVLDSDGSFFLYSKLTVDKSRWQQGNVFSCSVMHEALHNHYTQKSLSLSPGK
light: B3 light
notes: also called IG2 110
